Experiments:
[1] = target: PSI core complex (Chlamydomonas reinhardtii) (UniProt P12154); test: co-purification by sucrose density gradient ultracentrifugation with immunoblotting; PSI-LHCI complex from the ΔLHCA5 mutant (no LHCA5); thylakoids solubilised with 1% beta-DDM; SW41Ti, 288,000g, 4°C, 16 h; immunoblots normalised to PSAD
[2] = target: PSI core complex (Chlamydomonas reinhardtii) (UniProt P12154); test: co-purification by sucrose density gradient ultracentrifugation with 14C autoradiography; PSI-LHCI supercomplex from uniformly 14C-labelled wild-type cells; NaBr-washed thylakoids solubilised with 0.8% beta-DDM; TLS-55 rotor, 259,000g, 2.5 h; polypeptides separated by three SDS-PAGE systems; signal divided by carbon number and normalised to PSAF
[3] = target: PSAF (Chlamydomonas reinhardtii); test: as above

UniProt P12154, sequence (P12154 whole entry, looked up, one chain of several): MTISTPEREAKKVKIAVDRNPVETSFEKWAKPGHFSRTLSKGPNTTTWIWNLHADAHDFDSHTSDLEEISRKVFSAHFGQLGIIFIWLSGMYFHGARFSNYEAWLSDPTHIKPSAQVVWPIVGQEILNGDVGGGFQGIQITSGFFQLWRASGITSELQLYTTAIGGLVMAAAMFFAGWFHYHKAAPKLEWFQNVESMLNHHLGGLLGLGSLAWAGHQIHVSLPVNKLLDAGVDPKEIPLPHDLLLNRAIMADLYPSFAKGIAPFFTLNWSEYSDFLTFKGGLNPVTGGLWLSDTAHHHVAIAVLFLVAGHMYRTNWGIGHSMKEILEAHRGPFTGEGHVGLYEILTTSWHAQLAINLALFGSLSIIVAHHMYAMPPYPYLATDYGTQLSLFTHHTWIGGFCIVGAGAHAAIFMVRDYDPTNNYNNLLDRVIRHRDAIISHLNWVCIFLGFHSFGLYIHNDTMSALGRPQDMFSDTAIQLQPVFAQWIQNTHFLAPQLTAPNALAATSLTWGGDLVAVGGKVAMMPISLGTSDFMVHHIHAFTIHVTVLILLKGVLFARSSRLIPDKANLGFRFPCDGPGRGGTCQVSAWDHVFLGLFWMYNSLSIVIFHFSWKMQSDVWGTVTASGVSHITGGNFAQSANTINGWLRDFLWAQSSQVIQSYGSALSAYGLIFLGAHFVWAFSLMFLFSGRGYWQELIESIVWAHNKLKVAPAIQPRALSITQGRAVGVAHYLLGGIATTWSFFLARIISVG

Substance | stoichiometry N (copy, on a PSAF basis) [2] | other results
LHCA1 (natural protein) |  | amount in the PSI-LHCI supercomplex from the ΔLHCA5 mutant, percent of the control level [1]: 50%; stoichiometry N (copies, on a PSAF basis) [2]: 1.81
LHCA3 (natural protein) | 1 | 
LHCA5 (natural protein) | 1 | 
LHCA7 (natural protein) | 1 | 
LHCA8 (natural protein) | 1 | 
PSAD (natural protein) |  | stoichiometry N (relative abundance, on a PSAF basis) [3]: 1.17

Second part, led by results:

stoichiometry N (copy, on a PSAF basis) [2] | Substance | other results
1 | LHCA2 (natural protein) | 
1 | LHCA9 (natural protein) | 

Source: PMC6181050
